Data: publication doi:10.1101/797027

Target: hRpn10^322–366 peptide with Y326 phosphorylated (human) (UniProt P55036)
Assay: ITC

Chain of E6AP AZUL domain, E6AP[24–87] (Q05086 24-87): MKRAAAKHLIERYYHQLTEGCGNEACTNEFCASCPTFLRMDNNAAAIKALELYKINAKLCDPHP

- fold reduction of affinity against unphosphorylated hRpn10^322–366: 10 fold
Substance: E6AP AZUL domain, E6AP[24–87] (from UniProt Q05086 24-87) (domain or fragment)
